± gives the standard error. Fewer inactive variants are shown than the library holds.
B1: glmS ribozyme (parent)
chain: AUAAAAGCGCCAGAACUACAGAAAUGUAGUUGACGAGGAGGAGGUUUAUCGAAUUUUCGGCGGAUGCCUCCAAA

Variants of: B1
Assay: self-cleavage kobs at 2500 uM GlcN6P; higher = faster cleavage; RNA array
Conditions: with glucosamine-6-phosphate
Summary of the method: (§1)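 Barcoded ribozyme variants were transcribed in situ on sequenced MiSeq chips by E. coli RNA polymerase. At 37 °C, a hybridised Cy3 probe tracked them while glucosamine-6-phosphate (40 μM to 10 mM) in HEPES/KCl/Mg(OAc)2 buffer flowed in and tiles were imaged over ~14 h. Per-tile medians of signals normalised to baseline and to non-cleaving reference variants were fit to one- or two-exponential decays, giving kobs. kcat and KM came from weighted Michaelis–Menten fits across concentrations.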

Variant | self-cleavage kobs at 2500 uM GlcN6P
AUAAAAGCGCCAUAACUACAGAAAUGUAGUUGACGAGGAGGAGGUUUAUCCAAUUUACGGCGGAUGCCUCAAAA [G13U G51C U57A C71A] | < 1e-05 s⁻¹
AUAAAAGCGCCAAAACUACAGAAAUGUAGUUGAGAAGGAGAAGGUUUAUCGAAUUUUCGGCGGAAUCCUCCAAA [G13A C34G G35A G41A U65A G66U] | < 1e-05 s⁻¹
AUAAAAGCGCCAUAACUACAGAAAUGUAGUUGACUAGGAGGAGGUUUAUCGAAAUUUCGGCGGAUGCCUCCAAA [G13U G35U U54A] | < 1e-05 s⁻¹
AUAAAAGCGCCAUAACUAAAGAAAUGUAGUUGACGAGGAGGAGGUUUAUCGAAUUUUCGGCGGAUGCCUUCAAA [G13U C19A C70U] | 0.000171 ± 2.8e-05 s⁻¹
AUAAAAGCGCCAGCGUUACAGAAAUGUAGUUGACGAGGAGGAGGUUUAUCGAAUUUUCGGCGGAUGCCUCCAAA [A14C A15G C16U] | 4.99e-05 ± 1.9e-05 s⁻¹
AUAAAAGCGCCAUAACUACAGAAAUGUAGUUGACGAGUAGGAGGUUUAUCGAAGUUUCGGCAGAUGCCUCCAAA [G13U G38U U54G G62A] | < 1e-05 s⁻¹
AUAAAAGCGCCAGCACUACAGAAAUGUACCUGACGAGGAGGAGGUUUAUCGUAUUUUCGGCGGAAGCCUCCAAA [A14C G29C U30C A52U U65A] | < 1e-05 s⁻¹
AUAAAAGCGCCACAACUACAGAAAUGUAGUUGCCGAGGAGGAGGUUUAUCGAAUUUUCGGCGACUGCCUCCAAA [G13C A33C G63A A64C] | < 1e-05 s⁻¹
AUAAAAGCGCCAUAACUACAGAAAUGUAGUUGACGAGGAGGAGGUUUAUCGAGUUUUCGGCGGAUGCUUCCAAA [G13U A53G C68U] | 0.000212 ± 3.7e-05 s⁻¹
AUAAAAGCGCCAUAACUACAGAAAUGUAGGUCACGAGGAGGAGGUUUAUCGAAUUUUCGGCGGAUGCCUCCAAA [G13U U30G G32C] | 4.58e-05 ± 1.5e-05 s⁻¹
AUAAAAGCGCCACAAGUACAGAAAUGUAGUUGACGAGGAGGAGGUUUAUCGAAUUUUCGGCGGAUGCCGCCAAA [G13C C16G U69G] | 7.16e-05 ± 3.5e-05 s⁻¹
AUAAAAGCGCCACAACUACAGAAAUGUAGUUGACGAGUAGGAGGUUAAUCGAAUUUUCGGCGGAUGCCUGCAAA [G13C G38U U47A C70G] | < 1e-05 s⁻¹
AUAAAAGCGCCAAUACUACAGAAAUGUAGUUGACGAGGAGGAGGUUUAUCGAAUUAUCGGCGGAUGCCUCCAAA [G13A A14U U56A] | 0.000412 ± 0.0001 s⁻¹
AUAAAAGCGCCACAUCUACAGAAAUGUAGUUGACGAGGAGGAGGUUUAUCGAAUUUUCGGGGGAUGCCUCCAAA [G13C A15U C61G] | < 1e-05 s⁻¹
AUAAAAGCGCCAGCGCUACAGAAAUGUAGUUGACGAGGAGGAGGUUUAUCGAAUUUUCGGCCGAUGACUCCAAA [A14C A15G G62C C67A] | < 1e-05 s⁻¹
AUAAAAGCGCCAUAACUACAGAAAUGUAGUUGACGAGGAGGCGGUUUAUCGAAUUUUCGGCGGAUGCCACCAAA [G13U A42C U69A] | < 1e-05 s⁻¹
AUAAAAGCGCCAUAACUACAGAAAUGUAGUUGACGAGCAGGAGGUUUAUCGAUUUUUCGGCGGAUGCCUCCAAA [G13U G38C A53U] | < 1e-05 s⁻¹
AUAAAAGCGCCACAACUACAGAAAUGUAGUUGACGAUGAGGAGGUUUAUCGAAUUUUUGACGGAUGCCUCCAAA [G13C G37U C58U G60A] | < 1e-05 s⁻¹

Variant | self-cleavage kobs at 2500 uM GlcN6P
AUAAAAGCGCCAUAACUACAGAAAUGUAGUUGACGAGGCGGAGGUUUAUCGAAUUGUCGGCGGAUGCCUCCAAA [G13U A39C U56G] | 3.76e-05 ± 1.4e-05 s⁻¹
AUAAAAGCGCCACAACUACAGAAAUGUACUUGACGAGGAGGAGGUUUAUCGAAUAUUCGGCGGAUGCCUCCAAA [G13C G29C U55A] | 8.97e-05 ± 2.5e-05 s⁻¹
AUAAAAGCGCCAUGACUACAGAAAUGUAGUUGACGGGGAGGAGGUUUAUCGAAUAUUCGGCGGAUGCCUCCAAA [G13U A14G A36G U55A] | < 1e-05 s⁻¹
AUAAAAGCGCCAGCACUACAGAAAUGUAUUUGACGAGGAGGAGGUUUAUCGAGUUUUCGGCGGAGGCCUCCAAA [A14C G29U A53G U65G] | 6.14e-05 ± 1.8e-05 s⁻¹
AUAAAAGCGCCAAAACUACAGAAAUGUAGUUGCCGAGGAGGAGGUUUCUCGAAUUUUCGGCGGAUGCCUCCAAA [G13A A33C A48C] | < 1e-05 s⁻¹
AUAAAAGCGCCAUAACUACAGAAAUGUAGUUGACGAGGGGGAGGUUGAUCGAAUUUUCGGCGGAUGCCUCAAAA [G13U A39G U47G C71A] | 5.73e-05 ± 1.7e-05 s⁻¹
AUAAAAGCGCCAUAACUACAGAAAUGUAGUUGACGCGGAGGGGGUUUAUCGAAUUUUUGGCGGAUGCCUCCAAA [G13U A36C A42G C58U] | < 1e-05 s⁻¹
AUAAAAGCGCCAAAACUACAGAAAUGUAGUUGAAGAGGGGGAGGUUUAUCGAAUUUUCAGCCGAUGCCUCCAAA [G13A C34A A39G G59A G62C] | < 1e-05 s⁻¹
AUAAAAGCGCCAGCACUACAGAAAUGUAGUUGACGAGGAGGAGGUUUGUCGAAUUUUCGGCGGAUGCCUUCAAA [A14C A48G C70U] | 5.88e-05 ± 2.6e-05 s⁻¹
AUAAAAGCGCCACGACUACAGAAAUGUAGUUGACGAGGAGGAGGUAUAUCGAAUUUUCGGCGGAUGCCUCCAAA [G13C A14G U46A] | 5.24e-05 ± 1.3e-05 s⁻¹
AUAAAAGCGCCACAACUACAGAAAUGUAGUUGACGGGGAGGAGGUUUAUCGAAUUUUCGGCGGUUGCCUGCAAA [G13C A36G A64U C70G] | < 1e-05 s⁻¹
AUAAAAGCGCCAUAACUACAGAAAUGUAGUUGACGAGGAGGAGGUUGAUCGAAUUUUCGGCGGAUGUCUCCAAA [G13U U47G C67U] | 8.34e-05 ± 2.2e-05 s⁻¹
AUAAAAGCGCCAUAACUACAGAAAUGUAGUUGACGAGGAGGAGGUUGAUCGAAUUUUCGGCGGAUGACUCCAAA [G13U U47G C67A] | 7.8e-05 ± 1.6e-05 s⁻¹
AUAAAAGCGCCAUAACUACAGAAAUGUAGUUGACGAGGAGGAGGUUUAUCGAAUUUUCGGCGGAUGUCUUCAAA [G13U C67U C70U] | 6.19e-05 ± 2.3e-05 s⁻¹
AUAAAAGCGCCACCACUACAGAAAUGUAGUUGACCAGGAGGAGGUUUAUCGAAUUUUCGGCGGAUGCCUCCAAA [G13C A14C G35C] | < 1e-05 s⁻¹
AUAAAAGCGCCAUAACUACAGAAAUGUAGUUGACGAGGUGGAGGUUUAUCGAAUUAUCGGCGGAUGCCUCCAAA [G13U A39U U56A] | 0.000101 ± 2e-05 s⁻¹
AUAAAAGCGCCAAAACUACAGAAAUGUAGAUUACGAGGAGGAGGUUUAUCGAAUUUUCGGCGGAUGCCUCCAAA [G13A U30A G32U] | 7.99e-05 ± 1.7e-05 s⁻¹

Variants of: B1
Assay: self-cleavage kobs at 10000 uM GlcN6P; higher = faster cleavage; RNA array
Conditions: with glucosamine-6-phosphate
Summary of the method: as §1

Variant | self-cleavage kobs at 10000 uM GlcN6P
AUAAAAGCGCCAAUACUACAGAAAUGUAGUUGACGAGGAGGAGGUUUAUCGAAUUAUCGGCGGAUGCCUCCAAA [G13A A14U U56A] | 0.000631 ± 0.00023 s⁻¹
AUAAAAGCGCCAUAACUACAGAAAUGUAGUUGACGAGGAGGAGGUUGAUCGAAUUUUCGGCGGAUGUCUCCAAA [G13U U47G C67U] | 4.31e-05 ± 2e-05 s⁻¹

Reference: the supplement of paper PMC7125110
